Laboratory results published in the RNAGym collection of RNA variant scans (doi:10.1073/pnas.2313332121).

B1: TPR t1 (parent)
chain: GACCAAUCUGCCCUCAGAGCUCGAGAACAUCUUCGGAUGCAGAGGAGGCAGGCUUCGGUGGCGCGAUAGCGCCAACGUCCUCAACCUCCAAUGCAUCCCACCACAUGAUGAUGCCUGAAGAGCCUUGGUUUUUUG

Variants of: B1
Experiment: polymerase ribozyme fitness, log enrichment relative to wild type (log ratio); higher = more active; in vitro selection for triplet polymerase activity
How it was run: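 For each subunit of a heterodimeric triplet polymerase ribozyme, a mutant library was built by PCR and transcribed, then taken through a single in vitro selection round in triplicate. Selection involved annealing to a biotinylated primer, the partner subunit and triplets, incubation frozen at −7 °C, gel excision of extended constructs, capture on streptavidin beads and RT-PCR. Genotypes were retained after Illumina sequencing of inputs and outputs only with ≥10 input reads and ≥1 read in each output. Fitness is defined as the logarithm of a genotype's enrichment relative to wild-type enrichment, using inverse-variance-weighted averages across replicates, with the logarithm taken to base 2.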

Point of comparison: C12A G58A, “polymerase ribozyme fitness (log ratio)” value -0.259. Against it:
- G60C U109G G120A — lower, -5.9
- U55G G117U — lower, -2.73
- C31U — lower, -4.29
- G35U G39U C72U A75U A103U — lower, -8.04
- C20A G63U C85G — lower, -5.08
- A41C C72G — lower, -1.5
- G42U C53U C62U G110A — lower, -3.9
- A41C — lower, -0.956
- G36C A50C G71A A118U G120A — lower, -1.49
- C13U A37U C64U U92A U126C — lower, -3.51
- C12G U14G G107U C114U G120U C123U U133A — lower, -4.14
- G47A C86A A90G G117U G120C — within 0.2 log units, -0.329
- C11G U32C — higher, -0.0143
- C28G U96A C97G G117C — lower, -8.14
- C76U A105C — lower, -2.5
- G36A G44U C70U A111C — lower, -2.48
- C12U A27G G42A A90G G93U A95G — lower, -2.39
- G57C A91C — lower, -0.77
- C4U G60U C114U — lower, -3.78
- C8A C80U A105C U112G G120C — lower, -3.09
- U14G C34A G117A — lower, -4.56
- C8U G48C C56A — lower, -0.762
- C72A U87G A111G — higher, 0.26
- G60A G69U C82U C85G U129A — lower, -4.53
- A16C C124A — higher, 0.87
- C72G A91C — lower, -1.51
- G17A G77U U78A A118U — lower, -4.97
- U9C A43C A46G — lower, -1.4
- C82U C89U G113U G120A G128A — lower, -5.47
- A6U A41C C79G G113C U133A — lower, -4.49
- G19U A41U G63C A111G — lower, -4.2
- A37G C76G C80G — lower, -6.38
- A16U G61A U81A C88G — lower, -3.75
- C28U C53A G93U — lower, -4.15
- U9G G57U — within 0.2 log units, -0.376
- U9C C11U G71A A111C — lower, -1.02
- A43U C49A — lower, -1.86
- A84U C101U G122A U132A — lower, -1.15
- C13U G35A G48A U59C C86U G120U — lower, -5.19
- U14A A18U C73A G77C A119U — lower, -3.61
- C73G U109A — lower, -5.36
- C13G A108G — lower, -3.4
- G44A U55A C70A — lower, -3.95
- G63U A84C — lower, -1.52
- C11G C64U A74U C123U — higher, 0.798
- G25A C56A — lower, -5.23
- C8A C94A A119G — within 0.2 log units, -0.132
- G60C A111G — within 0.2 log units, -0.122
- G113A C123U — lower, -1.32
- C11A A84U U92C C98U — lower, -4.14
- U9G G52U C70G G122A — lower, -4.3
- G60U G63A C97A C99A A111U G122U U130A — lower, -6.95
- A2C C72U G120U — lower, -2.42
- C34A G42U C70G U81A C101A — lower, -8.04
- C62U U106A G120U C124G — higher, 1.54
- C72G G117A — lower, -1.8
- C12U C72A C80U — within 0.2 log units, -0.362
- G60C C99U — lower, -4.01
- G107C C115A — lower, -6.69
- G35U G61U — lower, -5.28
- G47C C56G C72G C82U C97U U112A — lower, -2.21
- G10A A27G C31G G107C — lower, -2.98
- U55C A66U A75U — lower, -0.518
- G44C G63U C79U — lower, -1.08
- C11U A41C C49G U59A G61U A91C U130G — lower, -3.24
- G61C U78A G93A U96A — lower, -1.93
- C8G C104A — lower, -0.951
- A5G C40A G120U — within 0.2 log units, -0.337
- C11U C12U C34A G63U U78C C104G G117C — lower, -6.71
- C73A C123A — higher, 1.63
- C8A G48A C101G C115U — lower, -4.25
- C22U G113A — lower, -4.09
- C70G C88U — lower, -2.98
- C8G U33C C64A U106A G120C — lower, -6.76
- C8U C12U C70G C94A — lower, -3.02
- G35A G63C G71U C114A — lower, -6.69
- C12A C89U — lower, -1.16
- C62G G110A U126G — lower, -5.29
- A50U G60A G93A — lower, -1.39
- C40G A111G — within 0.2 log units, -0.323
- U9C C31U C56A A103U G120U — lower, -6.8
- A105G — lower, -1.71
- A29G U132C — lower, -0.924
- A16G A68G — lower, -4.75
- G44A A103G A105U G117A — lower, -6.51
- U14C C72A — lower, -0.983
- A2C C124A — higher, 0.652
- C13U C62G U130C G135U — lower, -1.67
- C13A A46G U125G — lower, -3.19
- C64U U96C U132A — within 0.2 log units, -0.407
- C11G G107C U112C C123U G128C — lower, -5.88
- A6G G69A C73A — lower, -2.9
- G52U C73A — lower, -0.528
- A75G C114A — lower, -2.36
- G51A C53A U133A — lower, -2.17
- C11A C49A C53U A90U U126C — lower, -4.54
- C102A U109G — lower, -2.56
- C3A C85U — lower, -2.76
- G35A U59C U116G G122U C124G — lower, -6.12
- C20A G113C — lower, -4.5
- U7G G23A — lower, -4.28
- A43C U125G — lower, -2.24
- C20G C40U G42C G48U U109A — lower, -4.15
- C28U G113A — lower, -2
- U32C U116C — lower, -1.17
- C8U C11A — higher, 0.824
- C3U C12A C82A — lower, -1.8
- G42A A43U G52A C73U U133C — lower, -1.65
- C3U U9A C73A C79A U92G — lower, -3.38
- C3U C12A — lower, -0.942
- G69C C115U G128A — lower, -4.75
- G60A C94U — within 0.2 log units, -0.196
- G10C C13A G57U G61C A111U — lower, -5.2
- C11A A27G A41U C49G G61U G120A — lower, -3.04
- C53U C64G C73U A90C U112G — lower, -7.28
- G93A G122A U125G — lower, -3.18
- G77A A83C C94U C115G U116C U125G — lower, -4.83
- U112G G120U G122C — lower, -1.48
- G47U G51U G60C — lower, -3.98
- C70A G117U — lower, -4.09
- G52C A119G C124U — higher, 1.65
- C15U G23A A111U — lower, -7.2
- G44A C49U A50C U78C U133G G135U — lower, -1.75
- C11A A18C A43C C53U — lower, -4.45
- G45A A119G — higher, 0.105
- A6C C72G A108G C115U — lower, -4.82
- U32G C62G G120U — lower, -8.14
- G48C A95G U129C — lower, -1.6
- C102G U112A C123U G127A — lower, -5.25
- U9G C72U C86A — lower, -0.508
- A6C A37U G47U G52U G63C C124U — lower, -4.06
- G39U C115G — lower, -2.58
- C64U G77A G93C C98U G120A C124G — lower, -1.69
- A29G G63U G120C — lower, -1.96
- G17C C80U A83U C115G — lower, -2.85
- C13U U55G A91G — within 0.2 log units, -0.322
- U30G U32C — lower, -6.32
- G10A C102A — lower, -1.65
- C13A C72G C94A C124A — higher, 0.278
- C3U U7A A37C C98U — lower, -2.2
- A18C A50C G60A A84G U92A — lower, -6.2
- A29G A83C — lower, -1.32
- G63U C114A G122U — lower, -3.44
- G47A A103C G122A — lower, -6.8
- A27G G60C — lower, -2.15
- G47U G120A — lower, -0.734
- C49A A90C — lower, -1.35
- G42U C64U — lower, -1.54
- C40A C104U G110A C124U — lower, -2.31
- A29G G61A G93A C102G G117C — lower, -7.25
- G58C C80A — lower, -3.5
- G48A G69A — lower, -4.63
- A43U G113A — lower, -1.27
- C86A A90U — lower, -1.19
- C86A A90G — higher, 0.132
- C13A A75U U125A — lower, -2.12
- A37C U54G G57A — lower, -1.35
- C12A G61A G93A — lower, -0.608
- U7C U14G A37C — lower, -1.12
- C15G C98G G120A C123A C124A — lower, -6.86
- C12A A29U — lower, -1.98
- C73U U81A — lower, -3.27
- U14A C70G G77C U112C A119G U131G — lower, -3.76
- G10U C11G G35A C64U C123A — lower, -5.01
- C40U G71U C115U U125G U133C — lower, -0.893
- G51C A91U G113C C124A — lower, -5.11
